# Experiment: yeast display, Sf9 membrane polyspecificity reagent, FACS + sequencing; frameworks hold sequencing errors
# Summary of the method: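 After 36–48 hours of galactose induction, yeast (Saccharomyces cerevisiae BJ5465) displaying a synthetic nanobody library were stained at 4 °C for 1 hour with 10% biotinylated, detergent-solubilized Sf9 membrane reagent. Streptavidin microbeads enriched the stained cells before FACS sorting into low and high (top ~1%) gates on anti-HA and streptavidin fluorescence. Each clone's polyreactivity label reflects its gate of origin.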
row,Sequence,polyreactivity (PSR sort gate)
1,QVQLVESGAGLVQAGGSLRLSCAASGSIFWWNALGWYRQAPGKQRELVAAINWSTGRTYYADSVKGRFTISRDNAKNTVYLQMISLKPEDTAVYYCAACFVGDLGYEYWGQGTQVTVSS,low polyreactivity
2,QVPLVESAGGLVQAGGSLRLSCAASGITLYVYAKGWYRQAPGKERELVAAINSGGNTYYADSVKGRFTISRDNAKNTVYLQMNSLKPADTAVYYCAAVYPRQVSHVWRDDYWGQGTQVTVSS,high polyreactivity
3,QFQLVESGGGLDQAGGSLRLSCAASGRTFCNNAMGSYRQAAGKETELFAAISVLGGSTYYADSVKGRFTISRDNAKYTVFLQMNSLKPEDTAVYYCATRSRGWIAPPWQGSDGLYYWGQGTQVTVSS,low polyreactivity
4,QVQLVESGGGLVQAGGSLRLSCAASGSIFVKNAMGWYRPAPGKEREFVAAITTSGGSTNYADSVKGRFTISRDNAKNTVYLQMTSLKPEDTAVYYCNTDIFPAAYDYWVQGTQVTVSS,low polyreactivity
5,QVQLVESGGGLVQAGGSLRLICAASGRIFVPYVMGWYRQAPGKERELVASISDSDTSTYYADSVKGRFTISRDNAKNTVYLQMNSVKPEDTAVYYCNVDYWGQGTQVTVSS,low polyreactivity
6,QVQLVESGGGLVQAGGSLRLSCADSGIIFYVYAMGWYRPAPGKEREWVAAISSGGRTKYADSVKGRFTISRDNAKNTVYLQMNSLKPEDTAVYYCAAKSVRRRLGYWGQGTQVTVSS,high polyreactivity
7,QVQLVESGGGLVQAGGSLRLSCAASGGTIISYAMGWYRQAPRKERELVAAISRGGSSTYYADSVKGRFTISRDNAKNTVYLQMNSLKPEDTAVYYCVQLTRSGPDLDSWGQGTQVTVSS,high polyreactivity
8,QVHLVESGGGLVQAGCSLRLSCAASGYIFVRNAMGWYRQAPGKERELVAAISGSGGSTYYADSVKGRFTISRDNAKNTVYLQMNSLKPEDTAVYYCASDPYHWRWGWRHDYWGQGTQVTVSS,low polyreactivity
9,QVQLVESGGGLVQAGGSLRLSCAASGRTFANYAMGWYRQAPGKERELVAAISYSGGSTYYADSVKGRFTISRDNAKNTVYLQMNSLKPVDTAVYYCAKRWTGLGGYYYWGQGTQVTVSS,high polyreactivity
10,QVQLVESGGGLVQAGGSLRLSCASSGRTFRPYAKGWYRPAPGKDRELVAAITGGTRTYYADSVKGRFTISRDNAKNTVYLQMNSLKPEDTAGYYCAKGDFFSKHDYWGQGTQVTVSS,low polyreactivity
11,QVQVVESGGGLVQAGGSLRLSCAASGRTFRSYAMVWYRQAPGKERELVASISRGASTNYADSVNGRFTISRDNSKNTVYLQRNSLKPEDTAVYYCAAKYSWGYTYYYWGQGTQVTVSS,high polyreactivity
12,QVQLVESGGGLVQAGGSLRLSCAASGRIFAYYAMGWYRQAPGKERELVAAINSNGGSTYYADSVKGRFTISRDNAKNTVYLQLNSLKPEDTAVYYCAAGARYKMGYWGQGTQVTVSS,high polyreactivity
13,QVQLVDSGGGLVQAGGSLRLSCAASGFIFVRYAMGWYRQAPGKERELVAAISWSGARTYYADSVKGRFTISRDNAKNTVYLQFNSLKPEDSAVYYCAADSLDAGYYGYDYWGQGTQVGVSS,high polyreactivity
14,QVQLVESGGGLVQAGGSLRLSCAASGFTFFVYAMGWYRQAPGKEREGVAVITSGGTTNYADSVKGRFTISRDNAKNTVYLQMNSLKPEDTAVYYCATDNGGIPKYVPYDYWGQGTQVTVSS,high polyreactivity
15,QVQLVESGGGLVQAGCSLRLSCAASGRILFGYAMGWYRQAPGKERELVADITSTGSTNYADSVKGRFTISRDNAKNTVYLQMNSLKPEDTAVYYCNARRESYYQRYRVDYWGQGTQVTVSS,low polyreactivity
16,QVQLVESGGGLVQAGGSLRLSCAASGRTFTHYDMGWYRQAPGKERELVAAISSGCGTYYADSVKGRFTISRDNAKNTVYLQMNSLKPEDTAVYYCNADYTNYHDPFRTYGYWGQGTQVTVSS,low polyreactivity
17,QVQLVESGGGLDQAGGSLRLSCAASGSIFYRNAMGWYRKAPGKERELVAAISWSGSRTYYADSVKVRFTISRDNAKNTVYLQMISLKPEDTAVYYCNRQYNQWIHYYYRMDYWGQGNQVTVSS,high polyreactivity
18,QVQLVESGGGLFQAGGRLRLSCAPSGFNFGGYVMGWYRQAPGKDRELVAAISSSGGITHYADSVKGRFTISRDNANNTVYLQMNSLKPEDTEVYYCNALYRKRYYWGQGTQVTVSS,high polyreactivity
19,QVHLVESGGGLVQAGVSLRLSCAASGRIFEENAMGWYRQAPGKERELVAAITYSGGSTYYADSVKGRFTISRDNAKNTVYLQMNSLKPEDTAVYYCAATVDLVYIDYDYWGQGTQVTVSS,low polyreactivity
20,QVQLVESGGGLVQAGRSIRLSCAASGSTFAKYAMGWYRQAPAKERELVAAISSSGSRTYYADSVKGRFTISRDYAKNTVYLQMNILKTEDTAVYYCAALIVKPGGRVYYGGQGTQVTVSS,high polyreactivity
21,QVQLVESGGGLVQAGGSLRLSCAASGSIFASNAMGWYRQAPGKEREFVAAITWRTDRTHYADSVKGRFTISRDNAKNTVYLQMNSLKPEDTAVYYCAADTWFYRFYYWGQGTQVTVSS,high polyreactivity

row,Sequence,polyreactivity (PSR sort gate)
1,QVQLVESGGGLVQAGGSLRLSCAASGFTFRTYAMGWYRQAPGKVRELVAAITVSGGTYYADSVKGRFTISRDNAKNTVYLQMNSLKPEDTAVYYCTAKRFRTGLDYWGQGTQVTVSS,low polyreactivity
2,QVQLVESGGGLVQAGGSLRLSCAASGSIFPDNTMGWYRQAPGKERELVAAIDGRGGTTYYADSVKGRFTISRDNAKNTVYLQMNSLKPEDTAVYYCARDIGHSARYDYWGQGTQVTVSS,low polyreactivity
3,QVQLVESGGGLVQAGGSLRLSCAASGNIFLKNAMGWYRQAPGKERELVAAISKRGGSTYYAYSVKGRFTISRDNAKNTVYLQMNSLKPEDTAVYYCAAVLTKVWRGPEMDYWGQGTQVTVSS,high polyreactivity
4,QVQLVESGGGLVQAGGSLRLSCAASGRIFRYYAMGWYRQAPGKERELVAAISGGRTYYADSVKGRFTISRDNAKNTVYLQMNSLKPEDTAVYYCNAGGIVWTGYWYDYDYWGQGTQVTVSS,high polyreactivity
5,QVQLVESGGGLVQAGGSLRLSCAASGLTFSVYAMGWSRQAPGKERELVASITRSGGSTYYADSVKGRFTISRDNAKNTVYLQMNSLKPEDTADYYCNADKYYGFDYWGQGTQVTVSS,high polyreactivity
6,QVQLVESGGGLVQAGGSLRLSCAASGRIFVKNAMGWYRQAPGKERELVAAISSSSGSTYYADSVKGRFTISRDNAKNTVYLQMNSLKPEDTAVYYCATVRWYYSRPRPTTAYGYWGQGTQVTVSS,high polyreactivity
7,QVQLVESGGGLVQAGGSLRLSCAASGSTFVIYDMGWYRQAPGKERELVAAISYSGGSTYYADSVKGRFTISRDNAKNTVYLQMNSLKPEDTAVYYCNAGVLVLLYAYLPSELEYWGQGTQVTVSS,low polyreactivity
8,QVQLVESGGGLVQAGGSLRLSCAASGRTFVDYVMGWYRQAPGKERELVAAISRSGSTYYADSVKGRFTISRDNAKNTVYLQMNSLKPEDTAVYYCNVEYLRTYYILSDYWGQGTQVTVSS,low polyreactivity
9,QVQLVESGGGLVQAGGSLRLSCSASGFTFRYYTMGWYRQAPGKERELVAAISRSSGSRTYYADSVKGRFTISRDNAKNTVYLQMNSLKPEDTAVYYCNADPAYQFDYWGQGTQVTVSS,high polyreactivity
10,QVQLVESGGGLVQAGGSLRISCAASGRTFYRNAMGWNSKAPGKERELVAAIRRSDGSTYYADSVKGRFTISRDNAKNTVYLQMNSLKPEDTAVYYCAAGQGSRNLYYYWGQGTQVTVSS,high polyreactivity
11,QVQLVESGGVFVQAGGTLRLSCAASGITLNGYVMGWYRQAPGKEREFVAVITTRGGSTYYADSVKGRFTISRDNAKNTVYLQMNSLNPEDTAVYYCAARYVREYNYWGQGTQVTVSS,high polyreactivity
12,QVQLVESGGGLDQAGGSLRLSCAASGSTFTSNAMGWYRQAPGKERELVAAITWSGARTYYADSVKGRFTISRDNAKNTVYLQLNSLKPEDTAVYYCAAYIAGVTGGSGYYYWGQGTQVTVSS,high polyreactivity
13,QVQLVESGGGLVQAGGSLRLSCAASGSIYVWYDMGWYRQAPGKERELVDTISLSGVSTYYADSVKGRFTISRDNAKNTVYLQMNSLKPEDTAVYYCAADFVEQGEDDYWGQGTQVTVSS,low polyreactivity
14,QVQLVESAGGLVQAGGSLRLRSAASGSTIWHNAMGWYRHAPGKERELVAGISGSGGSTYYADSVKGRFTISRDNAKNTVYLEMNSMKPDDTAVYYCATDGRSRVDGVRRGPYDYWGQGTHVTVSS,low polyreactivity
15,QVQLVESGGGLVQAGGSLRLSCAASGFIFRYYAMGWYRQAPGKEREFVAAISSSGGSTYYADSVKGRFTISRDNAKNTVYLQMNSLKPEDTAVYYCAARSRQDNFYRSYNSWGQGTQVTVSS,high polyreactivity
16,QVQLVESGGGLVQAGGSLRLSCAASGSTFTRYAMGWYRQAPGKERELVAAISGGGSTNYADSVKGRFTISRDNSKNTVYLQMNSLKPEDTAVYYCAARVRTTGYSQMYYWGQGTQVTVSS,low polyreactivity
17,QVQLVESGGGLVQAGGSLGLSCAASGFTFHKYAMGWYRQAPGKERELVAAITSSGGSTYYADSVKGRFTISRDNAKNTVYLQMNSLKPEDTAVYYCAVGFYYFSSWYSYDYWGQGTQVTVSS,high polyreactivity
18,QVQLLESGGGLVQAGGSLRLSCAASGRIFVYYAMGLYRKAPGKERELVATITFGGGSTYYADSVKGRFTISRDNAKNNVYLQMNSLKQEDTAVYYCNAPGFAWYTTKYDYCGQGTQVTVSS,low polyreactivity
19,QVQLVESGGGLVQAGGSLRLSCAASGIFRQNAMGWYRQAPGKERELVAGISQSGGSTYYADSVKGRFTISRDNAKNTVYLQMNSLKPEDTAVYYCAGVSIWGYDYWGQGTQVTVSS,low polyreactivity
20,QVQLVESGGGLVQAGGSLRLSCAASGFTFGIYAMGWYRQAPGKERELVAAITSGGITKYADSVKGRFTISRDNAKNTVYLQMNSLKPEDTAVYYCAATGYRQSYDSTWYRYDYWGQGTQVTVSS,low polyreactivity

# Source: the nanobody polyreactivity screen of Harvey et al. (2022)
